Results taken from the Immune Epitope Database (IEDB).

How the values were obtained:
HLA-A*01:01 [1] = experiment: IEDB peptide-MHC binding, purified MHC/direct/fluorescence; filed as Kd, often an IC50 or EC50 that approximates it; ≥ and ≤ were set here for values at or beyond the usual limits of such assays; details: source organism: Marburg virus - Musoke, Kenya, 1980
HLA-A*02:01 [2] = experiment: as above; details: source organism: Marburg virus - Musoke, Kenya, 1980
HLA-A*11:01 [3] = experiment: as above; details: source organism: Marburg virus - Musoke, Kenya, 1980
HLA-A*26:02 = experiment: as above; details: source organism: Orthomarburgvirus marburgense
HLA-A*26:03 = experiment: as above; details: source organism: Orthomarburgvirus marburgense
HLA-A*31:01 [4] = experiment: as above; details: source organism: Marburg virus - Musoke, Kenya, 1980
HLA-A*69:01 = experiment: as above; details: source organism: Marburg virus - Musoke, Kenya, 1980
HLA-B*07:02 [5] = experiment: as above; details: source organism: Marburg virus - Musoke, Kenya, 1980
HLA-B*08:02 [6] = experiment: as above; details: source organism: Orthomarburgvirus marburgense
HLA-B*08:03 [7] = experiment: as above; details: source organism: Orthomarburgvirus marburgense
HLA-B*15:09 [8] = experiment: as above; details: source organism: Orthomarburgvirus marburgense
HLA-B*15:17 [9] = experiment: as above; details: source organism: Marburg virus - Musoke, Kenya, 1980
HLA-B*18:01 [10] = experiment: as above; details: source organism: Marburg virus - Musoke, Kenya, 1980
HLA-B*27:05 [11] = experiment: as above; details: source organism: Marburg virus - Musoke, Kenya, 1980
HLA-B*39:01 [12] = experiment: as above; details: source organism: Orthomarburgvirus marburgense
HLA-B*40:01 [13] = experiment: as above; details: source organism: Marburg virus - Musoke, Kenya, 1980
HLA-B*44:02 = experiment: as above; details: source organism: Marburg virus - Musoke, Kenya, 1980
HLA-B*48:01 [14] = experiment: as above; details: source organism: Marburg virus - Musoke, Kenya, 1980
HLA-B*57:01 [15] = experiment: as above; details: source organism: Marburg virus - Musoke, Kenya, 1980
HLA-B*58:01 [16] = experiment: as above; details: source organism: Marburg virus - Musoke, Kenya, 1980
HLA-A*68:02 = experiment: IEDB peptide-MHC binding, purified MHC/competitive/fluorescence; filed as Kd, often an IC50 or EC50 that approximates it; ≥ and ≤ were set here for values at or beyond the usual limits of such assays
HLA-B*38:01 = experiment: IEDB peptide-MHC binding, purified MHC/competitive/radioactivity; filed as Kd, often an IC50 or EC50 that approximates it; ≥ and ≤ were set here for values at or beyond the usual limits of such assays; details: source organism: Homo sapiens
HLA-B*15:02 = experiment: IEDB peptide-MHC binding, purified MHC/competitive/fluorescence; filed as Kd, often an IC50 or EC50 that approximates it; ≥ and ≤ were set here for values at or beyond the usual limits of such assays; details: source organism: Giardia lamblia ATCC 50803
HLA-A*01:01 [17] = experiment: as above; details: source organism: Pleistophora sp. LS
HLA-A*02:01 [18] = experiment: as above; details: source organism: Pleistophora sp. LS
HLA-A*02:03 = experiment: as above; details: source organism: Pleistophora sp. LS
HLA-A*11:01 [19] = experiment: as above; details: source organism: Pleistophora sp. LS
HLA-A*26:01 = experiment: as above; details: source organism: Pleistophora sp. LS
HLA-A*30:01 = experiment: as above; details: source organism: Pleistophora sp. LS
HLA-A*31:01 [20] = experiment: as above; details: source organism: Pleistophora sp. LS
HLA-B*07:02 [21] = experiment: as above; details: source organism: Pleistophora sp. LS
HLA-B*08:02 [22] = experiment: as above; details: source organism: Pleistophora sp. LS
HLA-B*08:03 [23] = experiment: as above; details: source organism: Pleistophora sp. LS
HLA-B*15:09 [24] = experiment: as above; details: source organism: Pleistophora sp. LS
HLA-B*15:17 [25] = experiment: as above; details: source organism: Pleistophora sp. LS
HLA-B*18:01 [26] = experiment: as above; details: source organism: Pleistophora sp. LS
HLA-B*27:05 [27] = experiment: as above; details: source organism: Pleistophora sp. LS
HLA-B*35:01 = experiment: as above; details: source organism: Pleistophora sp. LS
HLA-B*39:01 [28] = experiment: as above; details: source organism: Pleistophora sp. LS
HLA-B*40:01 [29] = experiment: as above; details: source organism: Pleistophora sp. LS
HLA-B*48:01 [30] = experiment: as above; details: source organism: Pleistophora sp. LS
HLA-B*57:01 [31] = experiment: as above; details: source organism: Pleistophora sp. LS
HLA-B*58:01 [32] = experiment: as above; details: source organism: Pleistophora sp. LS

**Q.** For SEINNLNLT, which Kd (HLA-A*01:01 [1]) is on record?
**A.** The Kd was no less than 20 µM.

**Q.** And the Kd (HLA-A*02:01 [2])?
**A.** The Kd was no less than 20 µM.

**Q.** And the Kd (HLA-A*11:01 [3])?
**A.** The Kd was no less than 20 µM.

**Q.** What about the Kd (HLA-A*26:02) of the same sequence?
**A.** Its Kd is no less than 20 µM.

**Q.** What about the Kd (HLA-A*26:03) of the same sequence?
**A.** The Kd was no less than 20 µM.

**Q.** What about the Kd (HLA-A*31:01 [4]) of the same sequence?
**A.** Its Kd is no less than 20 µM.

**Q.** What about the Kd (HLA-A*69:01) of the same sequence?
**A.** The Kd was no less than 20 µM.

**Q.** And the Kd (HLA-B*07:02 [5])?
**A.** Its Kd is no less than 20 µM.

**Q.** What about the Kd (HLA-B*08:02 [6]) of the same sequence?
**A.** Its Kd is no less than 20 µM.

**Q.** And the Kd (HLA-B*08:03 [7])?
**A.** The Kd was no less than 20 µM.

**Q.** And the Kd (HLA-B*15:09 [8])?
**A.** The Kd was no less than 20 µM.

**Q.** What about the Kd (HLA-B*15:17 [9]) of the same sequence?
**A.** Its Kd is no less than 20 µM.

**Q.** What about the Kd (HLA-B*18:01 [10]) of the same sequence?
**A.** The Kd was 8.07 µM.

**Q.** What about the Kd (HLA-B*27:05 [11]) of the same sequence?
**A.** Its Kd is no less than 20 µM.

**Q.** What about the Kd (HLA-B*39:01 [12]) of the same sequence?
**A.** The Kd was no less than 20 µM.

**Q.** And the Kd (HLA-B*40:01 [13])?
**A.** The Kd was 7 µM.

**Q.** What about the Kd (HLA-B*44:02) of the same sequence?
**A.** Its Kd is no less than 20 µM.

**Q.** And the Kd (HLA-B*48:01 [14])?
**A.** Its Kd is no less than 20 µM.

**Q.** And the Kd (HLA-B*57:01 [15])?
**A.** Its Kd is no less than 20 µM.

**Q.** What about the Kd (HLA-B*58:01 [16]) of the same sequence?
**A.** Its Kd is no less than 20 µM.

**Q.** What about the Kd (HLA-A*68:02; source organism: Orthomarburgvirus marburgense) of the same sequence?
**A.** The Kd was no less than 20 µM.

**Q.** SHETVTIEL was tested. Which Kd (HLA-B*38:01) did it give?
**A.** The Kd was 2.48 µM.

**Q.** With TLAHTHAAY as the sequence, how does the Kd (HLA-B*15:02) read?
**A.** The Kd was 0.0671 µM.

**Q.** With VELQIGWTV as the sequence, how does the Kd (HLA-A*01:01 [17]) read?
**A.** Its Kd is no less than 20 µM.

**Q.** What about the Kd (HLA-A*02:01 [18]) of the same sequence?
**A.** Its Kd is 0.239 µM.

**Q.** And the Kd (HLA-A*02:03)?
**A.** The Kd was no less than 20 µM.

**Q.** And the Kd (HLA-A*11:01 [19])?
**A.** The Kd was no less than 20 µM.

**Q.** What about the Kd (HLA-A*26:01) of the same sequence?
**A.** The Kd was no less than 20 µM.

**Q.** What about the Kd (HLA-A*30:01) of the same sequence?
**A.** Its Kd is no less than 20 µM.

**Q.** And the Kd (HLA-A*31:01 [20])?
**A.** The Kd was no less than 20 µM.

**Q.** And the Kd (HLA-A*68:02; source organism: Pleistophora sp. LS)?
**A.** The Kd was no less than 20 µM.

**Q.** What about the Kd (HLA-B*07:02 [21]) of the same sequence?
**A.** The Kd was no less than 20 µM.

**Q.** And the Kd (HLA-B*08:02 [22])?
**A.** The Kd was no less than 20 µM.

**Q.** And the Kd (HLA-B*08:03 [23])?
**A.** The Kd was no less than 20 µM.

**Q.** What about the Kd (HLA-B*15:09 [24]) of the same sequence?
**A.** Its Kd is no less than 20 µM.

**Q.** What about the Kd (HLA-B*15:17 [25]) of the same sequence?
**A.** Its Kd is no less than 20 µM.

**Q.** What about the Kd (HLA-B*18:01 [26]) of the same sequence?
**A.** The Kd was no more than 0.001 µM.

**Q.** And the Kd (HLA-B*27:05 [27])?
**A.** The Kd was no less than 20 µM.

**Q.** What about the Kd (HLA-B*35:01) of the same sequence?
**A.** The Kd was no less than 20 µM.

**Q.** And the Kd (HLA-B*39:01 [28])?
**A.** The Kd was 0.949 µM.

**Q.** And the Kd (HLA-B*40:01 [29])?
**A.** The Kd was 0.04 µM.

**Q.** What about the Kd (HLA-B*48:01 [30]) of the same sequence?
**A.** The Kd was no less than 20 µM.

**Q.** What about the Kd (HLA-B*57:01 [31]) of the same sequence?
**A.** The Kd was no less than 20 µM.

**Q.** And the Kd (HLA-B*58:01 [32])?
**A.** Its Kd is no less than 20 µM.
